# B1: ABSCISIC ACID-… 5-like protein 7 (Arabidopsis thaliana (Mouse-ear cress)), Q9M7Q2 (parent)
# chain: MGTHINFNNLGGGGHPGGEGSSNQMKPTGSVMPLARQSSVYSLTFDELQNTLGGPGKDFGSMNMDELLKSIWTAEEAQAMAMTSAPAATAVAQPGAGIPPPGGNLQRQGSLTLPRTISQKTVDEVWKCLITKDGNMEGSSGGGGESNVPPGRQQTLGEMTLEEFLFRAGVVREDNCVQQMGQVNGNNNNGFYGNSTAAGGLGFGFGQPNQNSITFNGTNDSMILNQPPGLGLKMGGTMQQQQQQQQLLQQQQQQMQQLNQPHPQQRLPQTIFPKQANVAFSAPVNITNKGFAGAANNSINNNNGLASYGGTGVTVAATSPGTSSAENNSLSPVPYVLNRGRRSNTGLEKVIERRQRRMIKNRESAARSRARKQAYTLELEAEIEKLKKTNQELQKKQAEMVEMQKNELKETSKRPWGSKRQCLRRTLTGPW
# partner: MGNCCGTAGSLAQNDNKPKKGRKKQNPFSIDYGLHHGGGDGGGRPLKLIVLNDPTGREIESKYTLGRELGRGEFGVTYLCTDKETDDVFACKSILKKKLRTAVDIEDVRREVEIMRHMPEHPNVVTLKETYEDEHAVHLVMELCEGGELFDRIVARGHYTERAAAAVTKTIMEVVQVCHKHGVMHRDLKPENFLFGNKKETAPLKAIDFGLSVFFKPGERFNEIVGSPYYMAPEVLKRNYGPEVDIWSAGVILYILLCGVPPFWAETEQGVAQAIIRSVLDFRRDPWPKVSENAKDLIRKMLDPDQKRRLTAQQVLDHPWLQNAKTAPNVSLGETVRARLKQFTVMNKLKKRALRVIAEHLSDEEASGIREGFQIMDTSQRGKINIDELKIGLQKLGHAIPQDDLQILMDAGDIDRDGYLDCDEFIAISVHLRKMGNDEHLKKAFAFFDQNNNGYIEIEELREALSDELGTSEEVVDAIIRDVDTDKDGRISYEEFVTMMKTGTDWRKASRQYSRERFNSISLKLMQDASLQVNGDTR
# Variants of: B1
# Conditions: with cdpkw_arath CPK32, Q6NLQ6
row,effect of a mutation on the interaction,Variant
1,disrupting interaction,MGTHINFNNLGGGGHPGGEGSSNQMKPTGSVMPLARQSSVYSLTFDELQNTLGGPGKDFGSMNMDELLKSIWTAEEAQAMAMTSAPAATAVAQPGAGIPPPGGNLQRQGALTLPRTISQKTVDEVWKCLITKDGNMEGSSGGGGESNVPPGRQQTLGEMTLEEFLFRAGVVREDNCVQQMGQVNGNNNNGFYGNSTAAGGLGFGFGQPNQNSITFNGTNDSMILNQPPGLGLKMGGTMQQQQQQQQLLQQQQQQMQQLNQPHPQQRLPQTIFPKQANVAFSAPVNITNKGFAGAANNSINNNNGLASYGGTGVTVAATSPGTSSAENNSLSPVPYVLNRGRRSNTGLEKVIERRQRRMIKNRESAARSRARKQAYTLELEAEIEKLKKTNQELQKKQAEMVEMQKNELKETSKRPWGSKRQCLRRTLTGPW [S110A]

# Variants of: B1
# Conditions: with cdpkw_arath CPK32, Q6NLQ6
# Remark: another data set of the same source
row,effect of a mutation on the interaction,Variant
1,decreasing interaction,MGTHINFNNLGGGGHPGGEGSSNQMKPTGSVMPLARQSSVYSLTFDELQNTLGGPGKDFGSMNMDELLKSIWTAEEAQAMAMTSAPAATAVAQPGAGIPPPGGNLQRQGALTLPRTISQKTVDEVWKCLITKDGNMEGSSGGGGESNVPPGRQQTLGEMTLEEFLFRAGVVREDNCVQQMGQVNGNNNNGFYGNSTAAGGLGFGFGQPNQNSITFNGTNDSMILNQPPGLGLKMGGTMQQQQQQQQLLQQQQQQMQQLNQPHPQQRLPQTIFPKQANVAFSAPVNITNKGFAGAANNSINNNNGLASYGGTGVTVAATSPGTSSAENNSLSPVPYVLNRGRRSNTGLEKVIERRQRRMIKNRESAARSRARKQAYTLELEAEIEKLKKTNQELQKKQAEMVEMQKNELKETSKRPWGSKRQCLRRTLTGPW [S110A]

# Reference: IntAct's records for PubMed 16299177
